According to article doi:10.1101/2022.05.05.490787:
Values joined by “and” are separate entries in the source; they are usually repeats but may differ in a detail not shown here. Equal values may be shown once.

Key:
[1] = molecular target: HA-Cdt1 phosphomimetic (2E3D) (human) (UniProt Q9H211); assay: co-IP
GFP-Cdt1^2E3D (human) = GFP-Cdt1^2E3D (human) (UniProt Q9H211); assay: BLI
[2] = molecular target: GFP-tagged Cdt1 (92-546 a. a.) (human) (UniProt Q9H211); assay: BLI
[3] = molecular target: GFP-tagged Cdt1 deletion fragment 410-546 (human) (UniProt Q9H211); assay: BLI
[4] = molecular target: GFP-tagged Cdt1 deletion fragment 92-410 (human) (UniProt Q9H211); assay: BLI

Row | % reduction of co-precipitated Ska1 against Cdt1-WT [1] | Kd (GFP-Cdt1^2E3D (human)) | Kd [2] | Kd [3] | Kd [4] | Substance
1 | 50% and 55% | – | – | – | – | SKA1 (endogenous) (from UniProt Q96BD8 1-255) (natural protein)
2 | – | 185 nM | 70 nM | 360 nM | 220 nM | Ska1 complex (analyte of the BLI experiments) (from UniProt Q96BD8;Q8WVK7)
